In US20250368734A1 (ANTENGENE BIOLOGICS, published 2025):

T1: mouse GPRC5D (mouse, UniProt Q9JIL6 1-344)
T1 construct: whole, on cells; HEK293T-mGPRC5D cells; also called mGPRC5D; murine GPRC5D
T1 sequence (looked up): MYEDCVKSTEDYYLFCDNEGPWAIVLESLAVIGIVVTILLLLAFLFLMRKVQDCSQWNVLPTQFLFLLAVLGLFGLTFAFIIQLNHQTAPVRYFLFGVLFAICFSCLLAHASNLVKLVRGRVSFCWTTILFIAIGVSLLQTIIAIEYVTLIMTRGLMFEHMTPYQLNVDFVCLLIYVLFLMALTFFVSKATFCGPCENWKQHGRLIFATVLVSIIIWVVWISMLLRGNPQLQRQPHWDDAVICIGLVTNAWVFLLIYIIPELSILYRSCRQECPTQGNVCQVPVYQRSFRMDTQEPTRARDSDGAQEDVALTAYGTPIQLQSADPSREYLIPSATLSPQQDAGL

B1: ch28H9C12 (antibody, V domains shown)
VH: EVQLVESGGGLVKPGGSLKLSCAASGFTFSDYGMHWVRQAPEKGLEWVAYISSGSSTIYYADTVKGRFTISRDNAKNTLFLQMTSLRSEDTAIYYCVRRPWYFDVWGTGTTVTVSS
VL: DVLMTQTPLSLPVSLGDQASISCRSSQSIVHSNGNTYLQWYLQKPGQSPKLLIYKVSNRFSGVPDRFSGSGSGTDFTLKISRLEAEDLGVYYCFQGSHVPFTFGSGTKLEIK
B2: ch82A1C10 (antibody, V domains shown)
VH: QVQLKESGPGLVAPSQSLSITCTVSGFSLTNYAVTWVRQPPGKGLEWLGVIWGDGSTYYHSALVSRLSITKDNSRTQVLLKLNSLQTDDTARYYCAKGGYSPFAYWGQGTLVTVSA
VL: DVVMTQTPLSLPVSLGDQASISCRSSQSLVHSNGNTYLHWYLQKPGQSPKLLIFKVSNRFSGVPDRFSGSGSGTDFTLKISRVEAEDLGVYFCSQNTHVPFTFGSGTKLEIK
B3: ch12G12C2 (antibody, V domains shown)
VH: QIQLVQSGPELKMPGETVKISCKASGYTFTTYGLSWVKQAPGKGLKWMGWINTFSGVPIYADDFKGRFAFSLETSASTAYLQINNLKNEDTATYFCARWGIRQRGDYWGQGATLTVSS
VL: QIVLTQSPAIMSASPGEKVTMTCSASSSVSYLHWYQQKSGTSPKRWIYDTSKLASGVPVRFSGSGSETSYSLTISSMEAEDAATYYCQQWTSNPPTFGGGTKLEIK
B4: ch26E2H6 (antibody, V domains shown)
VH: EVQLVESGGDLVKPGGSLKLSCAASGFTFSSYGMSWVRQTPDKRLEWVATISSGGSYTYYPDSVKGRFTISRDNAKNTLYLQMSSLKSEDTAMYYCARHATDYWGQGTTLTVSS
VL: QIVLTQSPAIMSASPGEKVTMTCSASSSVSYMHWYQQKSGTSPKRWIYDTSKLASGVPARFSGSGSGTSYSLTISSMEAEDAATYYCQQWSSNPLTFGAGTKLELK
B5: ch15D6G2 (antibody, V domains shown)
VH: EVQLVESGGDLVKPGGYLRLSCAASGFTFSSHGMSWVRQTPDKRLEWVATISSGGRNTYYPDSVKGRFTISRDNAKNILYLQMSSLKSEDTAMFYCTRHSGDAMDYWGQGTSVTVSS
VL: DILLTQSPAILSVSPGERVSFSCRASQSIGTNIHWYQQRTNGSPRLLIKYASESISGIPSRFSGSGSGTDFTLSINSVESEDIADYYCQQSKSWPTFGGGTKLEIK
B6: ch20C4E1 (antibody, V domains shown)
VH: EVRLVESGGALVRPGGSLKLSCAASGFTFSDYGMHWVRQAPEKGLEWIAFISSVSFTIYYADTVKGRFTISRDNAKNTLFLQMTSLRSEDTALYYCTRLGPHWYFDVWGTGTTVTVSS
VL: DVVLTQTPLSLPVSLGDQASISCRSSQSLVYSNGNTYLHWFLQKPGQSPQLLIYKVSNRFSGVPDRFSGSGSGTDFTLKISRVEAEDLGVYFCSQSTPVPTFGGGTKLEIK
B7: 83A9B8 (antibody, V domains shown)
VH: EVQLQQSGPELVKPGASVKMSCKASGYTFSNYVIHWVKQKPGQGLEWIGYFNPYNDGSKYNEKFKGKATLTSDKSSSTAYMELSSLTSEDSAVYYCARGGVRRYFDVWGAGTTVTVSS
VL: DIQMTQSPSSLSASLGERVSLTCRASQDIGDNLNWLQQEPDGTIKRLIYATFSLDSGVPKRFSGSRSGSVYSLTISRLESEDFVDYFCLHYASFPYTFGGGTKLEIK
notes: Mouse monoclonal antibody from hybridoma subclone
B8: 116F1G6 (antibody, V domains shown)
VH: EVQLQHSGPELVKPGASVKMSCKASGYTFTTYVMHWVKQKPGQGLEWIGYINPYNDGTKYNEKFKGKATLTSDKSSSTAYMELSSLTSEDSAVYYCARGGVRRYFDVWGAGTTVTVSS
VL: DIQMTQSPSSLSASLGERVSLTCRASQDIGSNLNWLQQEPNGTIKRLIYATFTLDSGVPKRFSGSRSGSDYSLTISSLESEDFVDYYCLQYASFPYTFGGGTKLEIK
notes: as for B7
B9: ch116F1G6 (antibody, V domains shown)
VH: EVQLQHSGPELVKPGASVKMSCKASGYTFTTYVMHWVKQKPGQGLEWIGYINPYNDGTKYNEKFKGKATLTSDKSSSTAYMELSSLTSEDSAVYYCARGGVRRYFDVWGAGTTVTVSS
VL: DIQMTQSPSSLSASLGERVSLTCRASQDIGSNLNWLQQEPNGTIKRLIYATFTLDSGVPKRFSGSRSGSDYSLTISSLESEDFVDYYCLQYASFPYTFGGGTKLEIK
B10: ch98A3A8 (antibody, V domains shown)
VH: EVQLQQSGPELVKPGASVKMSCKASGYTFTYYVTHWVRQKPGQGLEWIGYINPYNDGTMFNEKFKGKATLTSDKSSSTAYMEFSSLTSEDSAVFYCARGGVRRYFDVWGAGTTVTVSS
VL: DIQMTQSPSSLSASLGERVSLTCRASQDIGSNLNWLQQKPDGTIKRLIYATSSLDSGVPKRFSGSRSGSDYSLTINSLESEDFVDYYCLQYASFPYTFGGGTKLEIK
B11: ch83A9B8 (antibody, V domains shown)
VH: EVQLQQSGPELVKPGASVKMSCKASGYTFSNYVIHWVKQKPGQGLEWIGYFNPYNDGSKYNEKFKGKATLTSDKSSSTAYMELSSLTSEDSAVYYCARGGVRRYFDVWGAGTTVTVSS
VL: DIQMTQSPSSLSASLGERVSLTCRASQDIGDNLNWLQQEPDGTIKRLIYATFSLDSGVPKRFSGSRSGSVYSLTISRLESEDFVDYFCLHYASFPYTFGGGTKLEIK
B12: 116G1G4 (antibody, V domains shown)
VH: EVQLQQSGPELVKPGASVKMSCKASGYTFTYYIMHWVKQEPGQGLQWIGYINPYNDGAYYSARFKGKATLTSDKSSSTAYMDLTSLTSEDSAVYYCARGGVRRYFDVWGAGTTVTVSS
VL: DIQMTQSPSSLSASLGERVILTCRASQDIGSNLIWLQQKPDGTIKRLIYATFNLDSGVSKRFSGSRSGSDYSLTISSLDSEDFVDYYCLQYASSPYTFGGGTKLEIK
notes: as for B7
B13: ch116G1G4 (antibody, V domains shown)
VH: EVQLQQSGPELVKPGASVKMSCKASGYTFTYYIMHWVKQEPGQGLQWIGYINPYNDGAYYSARFKGKATLTSDKSSSTAYMDLTSLTSEDSAVYYCARGGVRRYFDVWGAGTTVTVSS
VL: DIQMTQSPSSLSASLGERVILTCRASQDIGSNLIWLQQKPDGTIKRLIYATFNLDSGVSKRFSGSRSGSDYSLTISSLDSEDFVDYYCLQYASSPYTFGGGTKLEIK
B14: 119E4B4 (antibody, V domains shown)
VH: EVQLQQSGAELVKPGASVKLSCTASGFNIKDTYMHWVKQRPEQGLEWIGRIDPANGNTKYDPKFQGKATITADTSSNTAYLQLSSLTSEDTAVYYCARDYGNYEDYAMDYWGQGTSVTVSS
VL: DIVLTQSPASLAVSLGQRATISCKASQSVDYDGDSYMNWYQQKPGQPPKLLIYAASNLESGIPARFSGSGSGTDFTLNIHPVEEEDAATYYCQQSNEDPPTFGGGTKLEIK
notes: as for B7
B15: ch36A3G8 (antibody, V domains shown)
VH: QVQLQQSGAELARPGASVKMSCKASGYTFTTYTMHWIKQRPGQDLEWIGFINPSSGYTKYNQNFKDKATLTADKSSTTAYMQLNSLTSEDSAVYYCASPYGNIYFDVWGTGTTVTVSS
VL: DIVMTQSQKFMSTAVGDRVSITCKASQNVGTAVAWYQQKPGQSPKLLIYSASNRYTGVPDRFTGSGSGTDFTLTISNMQSEDLADYFCQQYSSYPLTFGAGTKLELK

Tests used:
mouse GPRC5D = molecular target: T1, mouse GPRC5D; assay: FACS, HEK293T-mGPRC5D cells
cynomolgus monkey GPRC5D [1] = molecular target: T2, cynomolgus monkey GPRC5D (cynomolgus monkey); assay: FACS, HEK293T-cynoGPRC5D cells
T2 construct: whole, on cells; HEK293T-cynoGPRC5D cells; also called cynoGPRC5D

human GPRC5D [2] = molecular target: T3, human GPRC5D (human, UniProt Q9NZD1 1-345); assay: FACS, CHOS-hGPRC5D cells
T3 construct: whole, on cells; also called hGPRC5D; G-protein coupled receptor family C group 5 member D

cynomolgus monkey GPRC5D [3] = molecular target: T2, cynomolgus monkey GPRC5D; assay: FACS, HEK293T-cynoGPRC5D cells; remark: listed apart in the source
Source text: (§1) The subcloning plates were screened by Mirrorball assay and the subclones with good binding ability were expanded to 24-wells for confirmation tests. The specificity and cross-reactivity of these subclones were confirmed with FACS analysis. Briefly, parental HEK293T, HEK293T cells stably over-expressing human GPRC5D protein (i.e., HEK293T-hGPRC5D), HEK293T cells stably over-expressing cynomolgus monkey GPRC5D protein (i.e., HEK293T-cynoGPRC5D), HEK293T cells stably over-expressing mouse GPRC5D protein (i.e., HEK293T-mGPRC5D), and OPM2 cells were incubated with antibodies produced by each subclone, respectively. Fluorescent dye-conjugated secondary antibody was used to detect the binding of the primary antibody with the cells. Median fluorescence intensity (MFI) was measured by FACS analysis,
(§2) As a result, 21 antibodies were discovered with unique sequences showing positive binding with HEK293T-hGPRC5D and OPM2 cells. Among which, some clones could also bind with HEK293T-cynoGPRC5D and/or HEK293T-mGPRC5D. […] ATG596 was a positive human IgG1 control antibody which comprises a VH region having an amino acid sequence as set forth in SEQ ID NO: 199, and a VL region having an amino acid sequence as set forth in SEQ ID NO: 200.

human GPRC5D [4] = molecular target: T3, human GPRC5D; assay: FACS, HEK293T-hGPRC5D cells
Source text: as §1, §2

human GPRC5D [5] = molecular target: T3, human GPRC5D; assay: FACS, OPM-2 cells
Source text: as §1, §2

T3 sequence (Q9NZD1 whole entry): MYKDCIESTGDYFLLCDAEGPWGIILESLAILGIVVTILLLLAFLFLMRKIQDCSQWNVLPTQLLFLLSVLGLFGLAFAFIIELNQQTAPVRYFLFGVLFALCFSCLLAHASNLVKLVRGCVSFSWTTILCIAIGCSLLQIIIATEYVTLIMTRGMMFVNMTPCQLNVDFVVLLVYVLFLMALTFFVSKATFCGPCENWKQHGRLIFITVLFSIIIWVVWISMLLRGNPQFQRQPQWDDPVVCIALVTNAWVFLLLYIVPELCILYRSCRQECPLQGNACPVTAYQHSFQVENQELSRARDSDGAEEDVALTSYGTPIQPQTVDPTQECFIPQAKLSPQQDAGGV

| Binder | EC50 (mouse GPRC5D) | Top (mouse GPRC5D) | EC50 (cynomolgus monkey GPRC5D [1]) | Top (cynomolgus monkey GPRC5D [1]) | EC50 (human GPRC5D [2]) | Top (human GPRC5D [2]) | % Positive (cynomolgus monkey GPRC5D [3]) | MFI (cynomolgus monkey GPRC5D [3]) | % Positive (human GPRC5D [4]) | MFI (human GPRC5D [4]) | % Positive (human GPRC5D [5]) | MFI (human GPRC5D [5]) |
| --- | --- | --- | --- | --- | --- | --- | --- | --- | --- | --- | --- | --- |
| B1 | 110 nM | 26500 | 14.8 nM | 65900 | 2.83 nM | 3960 | – | – | – | – | – | – |
| B2 | – | – | – | – | 2.76 nM | 2680 | – | – | – | – | – | – |
| B3 | 995 nM | 1.48e+06 | 5.94 nM | 28200 | 4.06 nM | 3120 | – | – | – | – | – | – |
| B4 | 184 nM | 45700 | 40.4 nM | 51300 | 3.02 nM | 2910 | – | – | – | – | – | – |
| B5 | 592 nM | 648000 | 19.3 nM | 123000 | 1.27 nM | 4080 | – | – | – | – | – | – |
| B6 | 3940 nM | 5.06e+06 | 11.5 nM | 45800 | 2.83 nM | 4110 | – | – | – | – | – | – |
| B7 | – | – | – | – | – | – | 55.7% | 278 | 94.1% | 4930 | 98.3% | 824 |
| B8 | – | – | – | – | – | – | 41.4% | 82.6 | 96.2% | 42800 | 98.4% | 1040 |
| B9 | – | – | – | – | 0.863 nM | 1170 | – | – | – | – | – | – |
| B10 | 69.6 nM | 26000 | 9.78 nM | 46800 | 1.39 nM | 2970 | – | – | – | – | – | – |
| B11 | – | – | – | – | 0.4 nM | 1840 | – | – | – | – | – | – |
| B12 | – | – | – | – | – | – | 59.8% | 344 | 94.4% | 6050 | 97.4% | 706 |
| B13 | – | – | – | – | 0.686 nM | 2240 | – | – | – | – | – | – |
| B14 | – | – | – | – | – | – | 69.6% | 709 | 88.2% | 3240 | 98.6% | 867 |
| B15 | – | – | – | – | 2.64 nM | 2780 | – | – | – | – | – | – |
